Measurements reported in US20190292247A1 (DEGENRX B V, published 2019).

Columns and labels:
[1] = molecular target: T1, amyloid beta 1-42 oligomer (UniProt P05067 672-713); test: intrinsic Trp fluorescence quenching; the varied concentration is that of the oligomer (ABO), with CBB-VNAR fixed at 0.5 uM
T1 construct: domain: amyloid beta 1-42; Soluble oligomeric aggregate; also called Aβ-oligomers; oligomeric amyloid beta 1-42
Text: Therefore, Trp emission is widely used to study proteins and their interaction with other proteins or small molecules. The invariable core structure of the VNAR as isolated from wobbegong sharks has two Trp residues (see sequence below, Trp indicated in black) of which one is buried inside the protein whereas the other is exposed to the solvent (see FIG. 5D). The CBB-VNAR has two additional Trp residues in the CDR regions (one in CDR1, one in CDR3). No Trp residues are present in the CDR regions of the 12Y2 control protein. Apart from the CDR sequences, this control 12Y2 protein has an amino acid sequence identical to that of CBB-VNAR. To evaluate whether the Trp residues of CBB-VNAR are involved in the binding of amyloid beta oligomer antigen, a fluorescence titration study was performed. For this experiment, 0.5 uM CBB-VNAR or 12Y2 control VNAR were titrated with known quantities of amyloid beta oligomer (ABO) in Phosphate Buffered Saline (PBS) buffer, pH 7.2. […] After each ABO addition, the sample was equilibrated until the Trp fluorescence intensity was stable, and Trp emission spectra were recorded between 320 and 450 nm using 280 nm excitation. […] Upon addition of ABO, the emission intensity of CBB-VNAR decreases in a dose-dependent and saturable fashion where the intensity decreases to about 70% of the intensity measured for the native protein (FIGS. 5A and C). […]

[2] = molecular target: T2, Stable Crossbeta oligomers (Perkin Elmer Amyloid Oligomers AlphaLISA High-Specificity Detection Kit (AL334F)) (UniProt P05067 672-713); test: sandwich ELISA: CBB-VNAR coated at 2 µg/ml as capture, the stable oligomer concentration is varied, detection with 6E10-biotin and streptavidin-HRP; sandwich ELISA; CBB-VNAR coated 2 µg/ml as capture; stable Crossbeta oligomer titrated
T2 construct: also called Aβ-oligomers
T2 sequence (P05067 672-713): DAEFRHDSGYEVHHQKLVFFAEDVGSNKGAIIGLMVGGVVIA
Method: (§1) The generic amyloid beta binding antibody 6E10-biotin was immobilized on streptavidin Alphascreen®donor beads, while FLAG-tagged CBB-VNAR was immobilized on anti-FLAG Alphascreen®acceptor beads. These beads were incubated with different concentrations of amyloid beta 1-42 derived antigens (oligomers, monomers, fibrils, all prepared as described in example 1). In this format, a specific signal is generated when donor/6E10 and acceptor/CBB-VNAR beads simultaneously bind to different epitopes on the same molecule. […] Plates were then read using a Perkinelmer Enspire® plate reader using the 384 well factory preset measuring protocol. […] Stable Crossbeta oligomers (Perkin Elmer Amyloid Oligomers AlphaLISA High-Specificity Detection Kit (AL334F)) were also detected using an ELISA sandwich immunoassay format where the CBB-VNAR was immobilized to Nunc amino immobilizer plates (2 μg/ml coating, 1 hr rT) to serve as oligomer capture molecule. After incubation of the CBB-VNAR coated wells with different amounts of stable oligomer for 1 hour, wells were washed and bound oligomer was detected using sequential incubation with 6E10-biotin and streptavidin-HRP as described in example 1.

[3] = molecular target: T1, amyloid beta 1-42 oligomer; test: Alphascreen proximity sandwich: 6E10-biotin on streptavidin donor beads, CBB-VNAR on anti-FLAG acceptor beads; the oligomer concentration is varied; Alphascreen bead sandwich with 6E10-biotin; oligomer in solution titrated; apparent EC50
Method: as §1

[4] = molecular target: T1, amyloid beta 1-42 oligomer; test: intrinsic Trp fluorescence titration, 0.5 uM CBB-VNAR in PBS pH 7.2 with 0.5 mM EDTA, excitation 280 nm
Text: The amino acid residue tryptophan (Trp or W) intrinsically fluoresces upon excitation in the range 280-295 nm. The emission intensity (i.e. quantum yield) and emission wavelength are sensitive towards the local environment of the Trp residue. The local environment can change, for example, when the Trp residue is involved in conformational changes or ligand binding. Therefore, Trp emission is widely used to study proteins and their interaction with other proteins or small molecules. […] To evaluate whether the Trp residues of CBB-VNAR are involved in the binding of amyloid beta oligomer antigen, a fluorescence titration study was performed. For this experiment, 0.5 uM CBB-VNAR or 12Y2 control VNAR were titrated with known quantities of amyloid beta oligomer (ABO) in Phosphate Buffered Saline (PBS) buffer, pH 7.2. […] After each ABO addition, the sample was equilibrated until the Trp fluorescence intensity was stable, and Trp emission spectra were recorded between 320 and 450 nm using 280 nm excitation. […] Upon addition of ABO, the emission intensity of CBB-VNAR decreases in a dose-dependent and saturable fashion where the intensity decreases to about 70% of the intensity measured for the native protein (FIGS. 5A and C). […]

[5] = molecular target: T1, amyloid beta 1-42 oligomer; test: ELISA on immobilized oligomer (5 µg/ml), anti-FLAG-M2-HRP detection; ng/ml, as measured in the ELISA
Method: To probe the binding affinities of CBB-VNAR towards different amyloid beta species and aggregation states, ELISA assays were performed. As a comparator antibody, the well-characterized 6E10 antibody was used. The 6E10 antibody recognizes N-terminal amino acid residues 3-8 of amyloid beta (EFRHDS), an epitope that is present and available for antibody binding in amyloid beta 1-42 derived antigens regardless of the physical form or aggregation state (Crisostomo et al., 2015. Data Brief. 2015 Aug. 6; 4:650-8.; Frenzel et al., 2014. PLoS One. 2014 Mar. 3; 9(3):e89490). Amyloid beta aggregates were prepared by incubation of monomeric synthetic amyloid beta 1-42 monomer in either F-12 medium (for oligomers) or 10 mM HCl (for fibrils) essentially as described by Dahlgren et al. (2002. J Biol Chem. 2002 Aug. 30; 277(35):32046-53). Amyloid beta derived antigens in different forms (oligomer, monomer, fibril, all at 5 μg/ml) were immobilized to Nunc Amino Immobilizer plates and blocked with ethanolamine according to the manufacturer's instructions. After washing, plates were probed with different concentrations of either FLAG-tagged CBB-VNAR or biotinylated 6E10 antibody (in parallel and on the same plates) for 1 hour. Bound antibody was then detected using anti-FLAG-M2-HRP (for CBB-VNAR) or with streptavidin-HRP (for 6E10-biotin). […]

T1 sequence (P05067 672-713 limits assumed): as the sequence (P05067 672-713) above

EC50 (read off the curve) [1]: ~8 µg/mL
EC50 [2]: 0.01 µg/mL
EC50 [3]: 0.1 µg/mL
Trp emission intensity at saturation with oligomer, relative to the native protein [4]: ~70%
EC50 [5]: 0.004 µg/mL
B1: CBB-VNAR (FLAG-tagged) (VNAR)
VNAR: AWVDQTPRTATKETGESLTINCVLRDQNGWSRTGWYRTKLGSTNEQSISIGGRYVETVNKGSKSFSLRISDLRVEDSGTYKCQALLNPRREEFWFSRRYPVVKGAGTALTVKA
notes: Monomeric shark-type VNAR single domain (Mw 15 kDa); not shown: FLAG tag
